Earlier results as cited in patent US12128089B2 (Slayback Pharma LLC, priority 2022, dated 2024).
Where two headings read alike, the source gives them in different places.

Tests used:
[1] = neutral aqueous solution
[2] = dilute aqueous solutions, random coil conformation
[3] = not given; remark: listed apart in the source
[4] = not given; remark: listed apart in the source

Substance: Glucagon
- Solubility in aqueous solutions (pH less than 3 or greater than 9): > 10 mg/mL
- Solubility in aqueous solutions (pH range of 4 to 8): < 0.1 mg/mL
- Precipitation after preparation [1]: precipitates within an hour of preparation
- α-helix at the C-terminal end [2]: 15%
- Half-life in plasma [3]: 3 to 6 min
- Onset of action post injection [4]: 5 to 20 min
